Experimental data reported in PMC4476568.
Where “and” joins values, the source holds several entries; their conditions need not be identical. Equal entries are not always repeated.

Target: EGFP-labeled nuclear transport factor 2 (NTF2) (human) (UniProt P61970)
Experiment: fluorescence fluctuation spectroscopy brightness analysis (MSQ with z-scan FFS); living E. coli cells in agarose; two-photon excitation at 1000 nm, ~1 mW, focus at the geometric centre of the cell; MSQ-curve fit to Eqs 14 and 22; normalized brightness against EGFP in solution, corrected for cell geometry

- stoichiometry N: 2.1 and 1.94
Substance: EGFP-labeled nuclear transport factor 2 (NTF2) (from UniProt P61970 1-127) (natural protein; other documents disagree on this pair)
